From patent US20100298225A1, “PEPTIDE GAP JUNCTION MODULATORS” (published 2010)

Key:
[1] = molecular target: T1, Recombinant Cx43CT (carboxyl terminal domain of connexin43, sequence 255-382 of rCx43 preceded by GPLG) (rat, UniProt P08050); assay: SPR, Cx43CT immobilised, peptide at 100 uM, response normalised on Mw
Excerpt: (§1) Biophys. […] Commun. 8(4-6):225-229 (2001); Lang et al., “Surface Plasmon Resonance as a Method to Study the Kinetics and Amplitude of Protein-protein Binding,” in PRACTICAL METHODS IN CARDIOVASCULAR […] 936-947 (Stefan Dhein, Friedrich Wilhelm Mohr & Mario Delmar eds., 2005), which are hereby incorporated by reference in their entirety). Recombinant Cx43CT was covalently bound to a carboxylmethyl dextran matrix (Salamon et al., “Surface Plasmon Resonance Spectroscopy as a Tool for Investigating the Biochemical and Biophysical Properties of Membrane Protein Systems. II: Applications to Biological Systems,” Biochim. Biophys. Acta 1331(2):131-152 (1997), which is hereby incorporated by reference in its entirety). Specific peptides were presented and, when feasible, dissociation constants (KD) were calculated from the time course of binding and unbinding of the ligand, using a 1:1 (Langmuir) association and dissociation kinetic model (Biacore software package). In both phases (association and dissociation), the first 5-8 seconds of recording were not included in the fit, to avoid artifacts resulting from peptide distribution within the flow cells (Lang et al., “Surface Plasmon Resonance as a Method to Study the Kinetics and Amplitude of Protein-protein Binding,” in PRACTICAL METHODS IN CARDIOVASCULAR […] 936-947 (Stefan Dhein, Friedrich Wilhelm Mohr & Mario Delmar eds., 2005), which is hereby incorporated by reference in its entirety).
(§2) The peptides shown in table 2 and 3 were tested for binding to the carboxyl terminal domain (CT) of Cx43 using Surface Plasmon Resonance (“SPR”). SPR is a method that was used to identify the original RXPE sequence (Shibayama et al., “Identification of a Novel Peptide that Interferes with the Chemical Regulation of Connexin-43,” Circ. Res. 98:1365-72 (2006)). The amplitude of the response is also a function of the mass of the ligate, and the normalized data according to the individual peptide Mw's are shown in table 3.

[2] = molecular target: T1, Recombinant Cx43CT (carboxyl terminal …); assay: SPR, Cx43CT immobilised, peptide at 1 mM
Description: (§3) Recombinant Cx43CT was covalently bound to a carboxylmethyl dextran matrix (Salamon et al., “Surface Plasmon Resonance Spectroscopy as a Tool for Investigating the Biochemical and Biophysical Properties of Membrane Protein Systems. II: Applications to Biological Systems,” Biochim. Biophys. Acta 1331(2):131-152 (1997), which is hereby incorporated by reference in its entirety). Specific peptides were presented and, when feasible, dissociation constants (KD) were calculated from the time course of binding and unbinding of the ligand, using a 1:1 (Langmuir) association and dissociation kinetic model (Biacore software package). In both phases (association and dissociation), the first 5-8 seconds of recording were not included in the fit, to avoid artifacts resulting from peptide distribution within the flow cells (Lang et al., “Surface Plasmon Resonance as a Method to Study the Kinetics and Amplitude of Protein-protein Binding,” in PRACTICAL METHODS IN CARDIOVASCULAR […] 936-947 (Stefan Dhein, Friedrich Wilhelm Mohr & Mario Delmar eds., 2005), which is hereby incorporated by reference in its entirety).
(§4) The peptides shown in table 2 and 3 were tested for binding to the carboxyl terminal domain (CT) of Cx43 using Surface Plasmon Resonance (“SPR”). SPR is a method that was used to identify the original RXPE sequence (Shibayama et al., “Identification of a Novel Peptide that Interferes with the Chemical Regulation of Connexin-43,” Circ. Res. 98:1365-72 (2006)).

[3] = molecular target: T1, Recombinant Cx43CT (carboxyl terminal …); assay: SPR, Cx43CT immobilised, peptide at 1 mM, response normalised on Mw
Excerpt: as §1, §2

[4] = molecular target: T1, Recombinant Cx43CT (carboxyl terminal …); assay: SPR, Cx43CT immobilised, peptide at 25 uM
Description: as §3, §4

[5] = molecular target: T1, Recombinant Cx43CT (carboxyl terminal …); assay: SPR, Cx43CT immobilised, peptide at 500 uM
Description: as §3, §4

[6] = molecular target: T1, Recombinant Cx43CT (carboxyl terminal …); assay: SPR, Cx43CT immobilised, peptide at 25 uM, response normalised on Mw
Excerpt: as §1, §2

[7] = molecular target: T1, Recombinant Cx43CT (carboxyl terminal …); assay: SPR, Cx43CT immobilised, peptide at 250 uM
Description: as §3, §4

[8] = molecular target: T1, Recombinant Cx43CT (carboxyl terminal …); assay: SPR, Cx43CT immobilised, peptide at 100 uM
Description: as §3, §4

[9] = molecular target: T1, Recombinant Cx43CT (carboxyl terminal …); assay: SPR, Cx43CT immobilised, peptide at 500 uM, response normalised on Mw
Excerpt: as §1, §2

[10] = molecular target: T1, Recombinant Cx43CT (carboxyl terminal …); assay: SPR, Cx43CT immobilised, peptide at 250 uM, response normalised on Mw
Excerpt: as §1, §2

T1 sequence (P08050 other isoform, or with tags, fused parts or gaps limits assumed): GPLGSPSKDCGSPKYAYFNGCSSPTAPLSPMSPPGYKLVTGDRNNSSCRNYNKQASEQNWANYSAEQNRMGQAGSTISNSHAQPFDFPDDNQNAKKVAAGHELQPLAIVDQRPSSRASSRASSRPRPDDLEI

| Binder | SPR normalised on Mw at 100 uM [1] | SPR respons at 1 mM [2] [arbitrary units] | SPR normalised on Mw at 1 mM [3] | SPR respons at 25 uM [4] [arbitrary units] | SPR respons at 500 uM [5] [arbitrary units] | SPR normalised on Mw at 25 uM [6] | SPR respons at 250 uM [7] [arbitrary units] | SPR respons at 100 uM [8] [arbitrary units] | SPR normalised on Mw at 500 uM [9] | SPR normalised on Mw at 250 uM [10] |
| --- | --- | --- | --- | --- | --- | --- | --- | --- | --- | --- |
| Ac-RRNYGGGRRNY-NH2 [Compound 2509] | 4.4 (SPRrespons*100)/Mw | 479 | 34 (SPRrespons*100)/Mw | 21.5 | 281 | 1.5 (SPRrespons*100)/Mw | 148 | 62.5 | 19.9 (SPRrespons*100)/Mw | 10.5 (SPRrespons*100)/Mw |
| Ac-RRNY-NH2 [Compound 2498] | – | 91 | 14 (SPRrespons*100)/Mw | – | 50.9 | – | – | – | 7.9 (SPRrespons*100)/Mw | – |
| Ac-RRNYGGGSAVPFYRRNY-NH2 [Compound 2508] | 5.9 (SPRrespons*100)/Mw | 1020 | 49.4 (SPRrespons*100)/Mw | 31.1 | 547 | 1.5 (SPRrespons*100)/Mw | 285 | 122 | 26.4 (SPRrespons*100)/Mw | 13.7 (SPRrespons*100)/Mw |
| Ac-RRNYSAVPFYSHSRRNY-NH2 [Compound 2506] | 5.3 (SPRrespons*100)/Mw | 1170 | 53 (SPRrespons*100)/Mw | 51.7 | 562 | 2.3 (SPRrespons*100)/Mw | 327 | 117 | 25.4 (SPRrespons*100)/Mw | 14.8 (SPRrespons*100)/Mw |
| Ac-RRNYAVPFRRNY-NH2 [Compound 2511] | 5.5 (SPRrespons*100)/Mw | 692 | 41.9 (SPRrespons*100)/Mw | 16.2 | 390 | 1 (SPRrespons*100)/Mw | 214 | 90.5 | 23.6 (SPRrespons*100)/Mw | 13 (SPRrespons*100)/Mw |
| Ac-RRNYGGSAVPFYSHRRNY-NH2 [Compound 2510] | 7.9 (SPRrespons*100)/Mw | 1190 | 53 (SPRrespons*100)/Mw | 40.3 | 643 | 1.8 (SPRrespons*100)/Mw | 332 | 176 | 28.7 (SPRrespons*100)/Mw | 14.8 (SPRrespons*100)/Mw |
| Ac-YNRR-NH2 [Compound 2499] | – | 69.4 | 10.7 (SPRrespons*100)/Mw | – | – | – | – | – | – | – |

Second part, the binder after the results:

| SPR normalised on Mw at 100 uM [1] | SPR respons at 1 mM [2] [arbitrary units] | SPR normalised on Mw at 1 mM [3] | SPR respons at 25 uM [4] [arbitrary units] | SPR respons at 500 uM [5] [arbitrary units] | SPR normalised on Mw at 25 uM [6] | SPR respons at 250 uM [7] [arbitrary units] | SPR respons at 100 uM [8] [arbitrary units] | SPR normalised on Mw at 500 uM [9] | SPR normalised on Mw at 250 uM [10] | Binder |
| --- | --- | --- | --- | --- | --- | --- | --- | --- | --- | --- |
| 6.5 (SPRrespons*100)/Mw | 1400 | 58.8 (SPRrespons*100)/Mw | 67.7 | 739 | 2.8 (SPRrespons*100)/Mw | 358 | 156 | 31 (SPRrespons*100)/Mw | 15 (SPRrespons*100)/Mw | Ac-YNRRGGGSAVPFYSHSYNRR-NH2 [Compound 2496] |
| 7.3 (SPRrespons*100)/Mw | 703 | 45.4 (SPRrespons*100)/Mw | 42.3 | 438 | 2.7 (SPRrespons*100)/Mw | 254 | 114 | 28.3 (SPRrespons*100)/Mw | 16.4 (SPRrespons*100)/Mw | Ac-RRNYSHSRRNY-NH2 [Compound 2507] |
| 6.8 (SPRrespons*100)/Mw | 565 | 45.7 (SPRrespons*100)/Mw | 30.2 | 328 | 2.4 (SPRrespons*100)/Mw | 202 | 84.2 | 26.5 (SPRrespons*100)/Mw | 16.3 (SPRrespons*100)/Mw | Ac-RRNYRRNY-NH2 [Compound 2497] |
| 3.5 (SPRrespons*100)/Mw | 395 | 27.5 (SPRrespons*100)/Mw | 14.8 | 227 | 1 (SPRrespons*100)/Mw | 117 | 50.7 | 15.9 (SPRrespons*100)/Mw | 8.2 (SPRrespons*100)/Mw | Ac-RRNYVPRRNY-NH2 [Compound 2512] |
